This note sets out measurements from ChEMBL document CHEMBL1155272, “Nucleoside-5'-monophosphates as prodrugs of adenosine A2A receptor agonists activated by ecto-5'-nucleotidase” (J Med Chem, 2009).

Substrate in the data set: Nc1ncnc2c1ncn2[C@@H]1O[C@H](COP(=O)(O)O)[C@@H](O)[C@H]1O
The data set can be described thus: Activity at alkaline phosphatase.

B1: Alkaline phosphatase, tissue-nonspecific isozyme (Homo sapiens), P05186 (protein)
chain: MISPFLVLAIGTCLTNSLVPEKEKDPKYWRDQAQETLKYALELQKLNTNVAKNVIMFLGDGMGVSTVTAARILKGQLHHNPGEETRLEMDKFPFVALSKTYNTNAQVPDSAGTATAYLCGVKANEGTVGVSAATERSRCNTTQGNEVTSILRWAKDAGKSVGIVTTTRVNHATPSAAYAHSADRDWYSDNEMPPEALSQGCKDIAYQLMHNIRDIDVIMGGGRKYMYPKNKTDVEYESDEKARGTRLDGLDLVDTWKSFKPRYKHSHFIWNRTELLTLDPHNVDYLLGLFEPGDMQYELNRNNVTDPSLSEMVVVAIQILRKNPKGFFLLVEGGRIDHGHHEGKAKQALHEAVEMDRAIGQAGSLTSSEDTLTVVTADHSHVFTFGGYTPRGNSIFGLAPMLSDTDKKPFTAILYGNGPGYKVVGGERENVSMVDYAHNNYQAQSAVPLRHETHGGEDVAVFSKGPMAHLLHGVHEQNYVPHVMAYAACIGANLGHCAPASSAGSLAAGPLLLALALYPLSVLF
What is called Km is the substrate concentration at which the rate is half of its maximum. As to B1, the Km was 441 µM.
